As a reminder, the stoichiometry N is the number of molecules, sites or subunits per partner or assembly.

This note sets out measurements from publication doi:10.1101/2024.12.23.630133 (bioRxiv, 2024).

The data set deals with the molecule itself. Briefly: single-molecule GFP photobleaching.

B1: HCN1SM (GFP-tagged human HCN1 channel) (natural protein)
chain: MEGGGKPNSSSNSRDDGNSVFPAKASATGAGPAAAEKRLGTPPGGGGAGAKEHGNSVCFKVDGGGGGGGGGGGGEEPAGGFEDAEGPRRQYGFMQRQFTSMLQPGVNKFSLRMFGSQKAVEKEQERVKTAGFWIIHPYSDFRFYWDLIMLIMMVGNLVIIPVGITFFTEQTTTPWIIFNVASDTVFLLDLIMNFRTGTVNEDSSEIILDPKVIKMNYLKSWFVVDFISSIPVDYIFLIVEKGMDSEVYKTARALRIVRFTKILSLLRLLRLSRLIRYIHQWEEIFHMTYDLASAVVRIFNLIGMMLLLCHWDGCLQFLVPLLQDFPPDCWVSLNEMVNDSWGKQYSYALFKAMSHMLCIGYGAQAPVSMSDLWITMLSMIVGATCYAMFVGHATALIQSLDSSRRQYQEKYKQVEQYMSFHKLPADMRQKIHDYYEHRYQGKIFDEENILNELNDPLREEIVNFNCRKLVATMPLFANADPNFVTAMLSKLRFEVFQPGDYIIREGAVGKKMYFIQHGVAGVITKSSKEMKLTDGSYFGEICLLTKGRRTASVRADTYCRLYSLSVDNFNEVLEEYPMMRRAFETVAIDRLDRIGKKNSILLQKFQKDLNTGVFNNQENEILKQIVKHDREMVQAIAPINYPQMTTLNSTSSTTTPTSRMRTQSPPVYTATSLSHSNLHSPSPSTQTPQPSAILSPCSYTTAVCSPPVQSPLAARTFHYASPTASQLSLMQQQPQQQVQQSQPPQTQPQQPSPQPQTPGSSTPKNEVHKSTQALHNTNLTREVRPLSASQPSLPHEVSTLISRPHPTVGESLASIPQPVTAVPGTGLQAGGRSTVPQRVTLFRQMSSGAIPPNRGVPPAPPPPAAALPRESSSVLNTDPDAEKPRFASNL
Consider B1, for which the “stoichiometry N” value was 4.
